Data reported in US20250282887A1 (Amgen, published 2025).
Numbering of substitutions follows the chain as printed. One block for each binder: values may come before it.

What was measured:
[1] = target: T1, Human MAGEB2 (Melanoma-associated antigen B2) (human, UniProt O15479 1-319); experiment: IHC on FFPE UACC-257 cells (endogenous MAGEB2)
T1 construct: Intracellular antigen detected by IHC in FFPE material: CHO cells transfected with human MAGEB2 (mCherry vector with Myc/DDK tags, or ORF without tags)
T1 sequence: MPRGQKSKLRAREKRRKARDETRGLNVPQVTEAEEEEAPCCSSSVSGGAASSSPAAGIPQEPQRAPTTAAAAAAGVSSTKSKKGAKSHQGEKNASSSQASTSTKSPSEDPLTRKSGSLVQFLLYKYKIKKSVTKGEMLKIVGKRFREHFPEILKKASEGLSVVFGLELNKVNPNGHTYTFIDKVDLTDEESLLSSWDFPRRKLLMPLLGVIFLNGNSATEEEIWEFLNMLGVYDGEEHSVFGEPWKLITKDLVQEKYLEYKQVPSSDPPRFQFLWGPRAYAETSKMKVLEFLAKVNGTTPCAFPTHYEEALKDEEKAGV
Method: (§1) FFPE samples were sectioned at 4 μm and mounted on positive charged glass slides. After mounting, paraffin sections were air-dried at room temperature. FFPE TMA samples were received as freshly sectioned and mounted on glass slides. The fully automated IHC assay was performed on a Discovery Ultra Stainer (Ventana Medical Systems, Tucson, AZ) using Ventana Anti-Rabbit HQ (cat #760-4815), Ventana Anti-HQ HRP (cat #760-4820), and Ventana Antibody Diluent with Casein (cat #760-219) (Ventana Medical Systems, Tucson, AZ). The slides were baked on the Discovery Ultra Stainer at 60° C. for 8 minutes, de-paraffinized with Ventana Discovery wash (cat #950-510) for 3 cycles (8 minutes each) at 69° C., and underwent cell conditioning (target retrieval) at 95° C. for 16 minutes (for cell arrays) or 32 minutes (tissues or TMAs) in CC1 buffer (cat #950-500). Following this, slides were incubated with Background Sniper (cat #BS966M, Biocare Medical, Pacheco, CA) in a Ventana Option Prep kit (cat #771-751) for 28 minutes, incubated with CM inhibitor (a part of the Ventana DAB kit cat #760-159) for 12 minutes, and incubated for 1 h at RT with MAGE-B2 antibody diluted with Ventana diluent with Casein in a Ventana Prep kit (cat #770-001) (working concentration at 0.1 μg/ml for cell pellet, or 1-5 ug/ml for tissues) or with a matched concentration of isotype control Rabbit IgG1 antibody. Following this, slides were incubated with the Ventana Anti-Rabbit HQ (cat #760-4815) for 28 minutes at RT, Ventana Anti-HQ HRP (cat #760-4820) for 28 minutes at RT, and signals detected with Ventana DAB chromogen kit (cat #760-159) for 5 minutes at RT. Slides were counterstained with Ventana Hematoxylin II (cat #5266726001) for 8 minutes and Ventana Bluing reagent (cat #526676900) for 4 minutes. Slides were coverslipped and digitized using an Aperio AT2 scanner (Leica Biosystems Inc, Buffalo Grove, IL).

[2] = target: T1, Human MAGEB2 (Melanoma-associated …); experiment: IHC on FFPE SCaBER cells (endogenous MAGEB2)
Method: as §1

human MAGEA12 = target: T2, human MAGEA12 (human, UniProt P43365 1-314); experiment: IHC, FFPE CHO cells transfected with human MAGEA12
T2 construct: whole, on cells; FFPE cell pellets
T2 sequence (P43365 whole entry): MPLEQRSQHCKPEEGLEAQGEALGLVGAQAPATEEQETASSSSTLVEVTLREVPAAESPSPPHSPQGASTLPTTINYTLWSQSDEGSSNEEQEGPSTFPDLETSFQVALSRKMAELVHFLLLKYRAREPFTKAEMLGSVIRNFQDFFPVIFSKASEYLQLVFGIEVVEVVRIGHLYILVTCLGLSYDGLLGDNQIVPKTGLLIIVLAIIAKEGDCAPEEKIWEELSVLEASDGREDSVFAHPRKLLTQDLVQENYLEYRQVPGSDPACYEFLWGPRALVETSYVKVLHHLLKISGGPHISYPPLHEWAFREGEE
From the text: Negative control cells included parental Chinese hamster ovary (CHO) cells, CHO cells stably transfected with mCherry Vector Control (minus Myc/DDK tags), CHO cells stably transfected with mCherry-human DCAF4L2 (plus Myc/DDK tags). The cross-reactivity control cells included CHO cells transfected with mCherry Vector Control (plus Myc/DDK tags) with one of the human MAGE-B or MAGE-A family members (MAGEA1, MAGEA2, MAGEA3, MAGEA4, MAGEA5, MAGEA6, MAGEA8, MAGEA9, MAGEA11, MAGEA12, MAGEB1, MAGEB3, MAGEB4, MAGEB5, MAGEB6, MAGEB10, MAGEB16, MAGEB17, MAGEB18). Positive control cell lines included CHO cells transfected with mCherry Vector (plus Myc/DDK tags) with human MAGE-B2 or CHO cells transfected with mCherry Vector (open reading frame (ORF); minus Myc/DDK tags) with human MAGEB2, and thirteen human cancer cell lines with known endogenous RNA expression level of MAGEB2 (U266B1, T98G, KMM-1, U20S, CFPAC-1, SCaBER, UACC-257, CFPAC-1, VMRC-LCD, NCI-H1703, UM-UC-3, NCI-H1395, NCIH82).
as §1, with “antibody.” for “antibody. Following this, slides were incubated with the Ventana Anti-Rabbit HQ (cat #760-4815) for 28 minutes at RT, Ventana Anti-HQ HRP (cat #760-4820) for 28 minutes at RT, and signals detected with Ventana DAB chromogen kit (cat #760-159) for 5 minutes at RT. Slides were counterstained with Ventana Hematoxylin II (cat #5266726001) for 8 minutes and Ventana Bluing reagent (cat #526676900) for 4 minutes. Slides were coverslipped and digitized using an Aperio AT2 scanner (Leica Biosystems Inc, Buffalo Grove, IL).”

[3] = target: T1, Human MAGEB2 (Melanoma-associated …); experiment: IHC on FFPE U266B1 cells (endogenous MAGEB2)
Method: as §1

[4] = target: T1, Human MAGEB2 (Melanoma-associated …); experiment: IHC on FFPE CFPAC-1 cells (endogenous MAGEB2)
Method: as §1

IHC % Frequency [1]: 0%
IHC % Frequency [2]: 70%
IHC Intensity [2]: 2
binding result (human MAGEA12): no binding (tested: 0.1 µg/ml)
IHC % Frequency [3]: 90%
IHC Intensity [3]: 2
IHC % Frequency [4]: 0%
B1: 1C3 (antibody, V domains shown)
VH: QSLEESGGGLVQPEGSLTLTCTAFGVTLTNYYICWVRQAPGKGLEWVGCIDNANGRTYYASWAKGRFTISKTSSTTGTLQMTSLTAADTATYFCARSLATPLWGPGTLVTVSS
VL: DIVMTQTPSSVEAAVGGTVTIKCQASQNISSYLAWYQQKPGQPPKLLIYRASTLASGVPSRFKGSGSGTQFTLTISDLECADAATYYCQSYDDSRSSNFFYAFGGGTEVVVKG
notes: also called MAGE-B2 (IC3); anti-MAGEB2 antibody 1C3

IHC % Frequency [1]: 0%
IHC Intensity [1]: 0
IHC % Frequency [2]: 70%
IHC Intensity [2]: 2
binding result (human MAGEA12): no binding (tested: 0.1 µg/ml)
IHC % Frequency [3]: 80%
IHC Intensity [3]: 2
IHC % Frequency [4]: 0%
B2: 4G17 (antibody, IgG1, V domains shown)
VH: B1 VH with F24S, T29S, V47I, A53V
VL: DIVMTQTPASVEAAVGGTVTIKCQASQNIDSYLAWYQQKPGQPPKLLIYRASTLASGVPSRFKGSGSGTEFTLTISDLECADAATYYCQSYDDSRSSSFFYGFGGGTEVVVK
notes: Rabbit monoclonal IgG1; Tested as supernatant and as small batch purified antibody; also called MAGE-B2 (4G17); anti-MAGEB2 antibody 4G17

IHC % Frequency [1]: 0%
IHC Intensity [1]: 0
IHC % Frequency [2]: 50%
IHC Intensity [2]: 2
binding result (human MAGEA12): no binding (tested: 0.1 µg/ml)
IHC % Frequency [3]: 90%
IHC Intensity [3]: 1
IHC % Frequency [4]: 0%
B3: 1J15 (antibody, IgG1, V domains shown)
VH: B1 VH with V26F, T29N, V47I, G48A, G77V, A99S
VL: B2 VL with N28S, D30S, A34S, K63R, E70Q, R95S, S96D, S97N, S98N, K112R
notes: Rabbit monoclonal IgG1; Tested as supernatant and as small batch purified antibody; also called MAGE-B2 (IJ15); anti-MAGEB2 antibody 1J15

IHC % Frequency [1]: 0%
IHC % Frequency [2]: 0%
IHC Intensity [2]: 0
binding result (human MAGEA12): no binding (tested: 0.1 µg/ml)
IHC % Frequency [3]: 90%
IHC Intensity [3]: 3
IHC % Frequency [4]: 0%
B4: 1I14 (antibody, V domains shown)
VH: QSVEESGGRLVTPGTPLTLTCTISGFSLSSYAMSWVRQAPGKGLEWIGSIGGGGSAVYASWAKGRFTISKTSTTVDLRITSPTTEDTAMYFCGRGFYSIDLWGPGTLVTVSS
VL: DVVMTQTPASVEATVGGTVTIKCQSSQSVYDNNALAWYQQNAGQRPRLLIYGASTLASGVPSRFSASGSGTEFTLTISDLECADAATYYCQCTYYVSSYQNDFGGGTEVVVKG
notes: also called MAGE-B2 (1i14)
